The results in this text go back to US20150080315A1.

One may read the IC50 as the point on the concentration scale where inhibition reaches its midpoint.

For assay [1], the target named is HDAC complex / nucleosome remodeling and deacetylase (NuRD) complex in SNU-398 nuclear extracts. Kind of assay: cell-based or functional assay.
Assay [2] has the same target. Briefly: fluorescence polarization competition; unlabeled peptide displaces FITC-labeled wild type peptide from complexes in SNU-398 nuclear extracts. In general terms: In fluorescence polarisation assays a small probe gives low polarisation when free and higher when bound to something large.

The molecule “endogenous SALL4 (SNU-398 cells) (from UniProt Q9UJQ4 1-1053)” returned an engraftment of human AML cells treated with wild type peptide in NSG mice in assay [1] of 0.5%.
On to MSRRKQAKPQHI [wild type 12-AA SALL4 peptide (…), unlabeled], for which the IC50 in assay [2] stood at 5 µM.
